# B1: MAb 9I6 (antibody, V domains shown)
# VH: EVQLVQSGAEVKKPGESLKISCRESGDTFPAYWIAWVRQMPGKGLEWMGIIYPIDSETTYSPSFQGQVTISADKSINTAYLQWSSLKASDSAIYYCARGTSTGLREAFHIWGQGTMVTVSS
# VL: DVVMTQSPLSLAVTLGQPAYISCRSSQSLGYSDGNTYLNWFQQRPGQSPRRLIYEVSNRDSGVPDRFSGSGSGTDFTLKISRVEAEDVGTYYCMQGTHWPPMCSFGQGTKLEIK
# notes: source: 293F cells, transient transfection, purified (protein A)
# B2: MAb 8I21 (antibody, V domains shown)
# VH: LVELVESGGGVVQPGRSLRLSCAASGFTFSSDGMHWVRQSPGRGLEWVAFISSDGSTPYYADSVKGRFTISRDNSKNTLYLQMNSLRAEDTAMYFCAKDWALFRWLRTFDHWGQGTLVTVSS
# VL: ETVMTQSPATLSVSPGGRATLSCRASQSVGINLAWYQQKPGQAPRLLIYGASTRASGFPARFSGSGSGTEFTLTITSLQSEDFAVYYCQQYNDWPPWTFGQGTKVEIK
# notes: as for B1
# B3: MAb MSL-109 (antibody, V domains shown)
# VH: EEQVLESGGGLVKPGGSLRLSCAASGFTFSPYSVFWVRQAPGKGLEWVSSINSDSTYKYYADSVKGRFTISRDNAENSIFLQMNSLRAEDTAVYYCARDRSYYAFSSGSLSDYYYGLDVWGQGTLVTVSS
# VL: DIVMTQSPLSLSVTPGEPASISCRSSQSLLHTNGYNYLDWYVQKPGQSPQLLIYLASNRASGVPDRFSGSGSGTDFTLKISRVETEDVGVYYCMQALQIPRTFGQGTKVEIK
# notes: as for B1
# Columns and labels:
# Conditions in all cases: both partners purified
# [1] = biological target: T1, recombinant gH/gL/UL128/UL130/UL131A pentamer (wild type) (Human cytomegalovirus VR1814 (gH strain …, UniProt Q6SW67;F5HCH8;PDB)); experiment: SPR; Biacore X100, CM5 chip, RT, 1:1 binding model; methods: antibody (4 μg/mL) captured by anti-human Fc IgG to about 100 RU, pentamer or trimer in five 2-fold dilutions injected at 30 μL/min, 90 s association, 600 s dissociation (the legend of Fig. 5 tells the reverse orientation)
# T1 construct: also called CMV pentamer; HCMV pentamer complex; source: HEK293F, cotransfected with gH, gL, UL128, UL130 and UL131A plasmids, purified (Ni-NTA, SEC); not shown: His6, C-terminal, kept; copies: + + + +
# T1 sequence (F5HCH8 whole entry, looked up, chain 1 of 2): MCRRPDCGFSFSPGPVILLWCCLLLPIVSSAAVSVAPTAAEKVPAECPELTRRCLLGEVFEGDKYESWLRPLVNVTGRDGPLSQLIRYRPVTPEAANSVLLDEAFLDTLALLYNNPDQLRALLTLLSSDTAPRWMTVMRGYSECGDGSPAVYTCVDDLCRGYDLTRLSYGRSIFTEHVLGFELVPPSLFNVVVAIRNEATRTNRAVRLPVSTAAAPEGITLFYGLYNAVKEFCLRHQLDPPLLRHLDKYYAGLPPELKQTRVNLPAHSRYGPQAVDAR
# T1 sequence (Q6SW67 whole entry, looked up, chain 2 of 2): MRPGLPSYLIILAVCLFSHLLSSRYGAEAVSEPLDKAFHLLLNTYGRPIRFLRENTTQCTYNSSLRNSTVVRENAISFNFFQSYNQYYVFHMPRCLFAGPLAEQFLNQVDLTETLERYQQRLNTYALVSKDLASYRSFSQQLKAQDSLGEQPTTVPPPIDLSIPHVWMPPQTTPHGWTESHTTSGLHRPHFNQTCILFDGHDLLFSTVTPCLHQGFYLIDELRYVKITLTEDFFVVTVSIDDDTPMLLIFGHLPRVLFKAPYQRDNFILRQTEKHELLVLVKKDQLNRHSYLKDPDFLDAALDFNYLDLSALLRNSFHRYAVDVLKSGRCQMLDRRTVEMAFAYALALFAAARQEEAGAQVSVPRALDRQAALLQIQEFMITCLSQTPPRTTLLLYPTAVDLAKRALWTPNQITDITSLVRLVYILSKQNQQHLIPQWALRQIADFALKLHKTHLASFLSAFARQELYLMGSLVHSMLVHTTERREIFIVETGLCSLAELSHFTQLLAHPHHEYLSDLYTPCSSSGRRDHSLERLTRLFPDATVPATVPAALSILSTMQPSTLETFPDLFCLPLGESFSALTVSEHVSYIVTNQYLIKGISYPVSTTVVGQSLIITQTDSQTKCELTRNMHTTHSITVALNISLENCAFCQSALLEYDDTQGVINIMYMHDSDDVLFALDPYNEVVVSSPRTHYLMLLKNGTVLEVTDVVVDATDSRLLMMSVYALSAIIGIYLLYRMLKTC
# [2] = biological target: T1, recombinant gH/gL/UL128/UL130/UL131A …; experiment: as above; remark: listed apart in the source
# [3] = biological target: T2, recombinant gH/gL/UL128/UL130/UL131A pentamer (wild type) (Human cytomegalovirus VR1814 (gH strain …, UniProt Q6SW67;F5HCH8;PDB)); experiment: ELISA; pentamer, trimer or pentamer mutant coated at 100 ng/well (carbonate bicarbonate buffer pH 7.4, overnight 4°C); purified antibodies in eight serial 3-fold dilutions from 1 μg/mL, 37°C 1 h; detected with goat anti-human IgG (H+L)-HRP
# T2 construct: also called CMV pentamer; HCMV pentamer complex; source: HEK293F, cotransfected with gH, gL, UL128, UL130 and UL131A plasmids, purified (Ni-NTA, SEC); not shown: His6, C-terminal, kept; copies: + + + +
# T2 sequence (F5HCH8 whole entry, looked up, chain 1 of 2): as the sequence (F5HCH8 whole entry, looked up, chain 1 of 2) above
# T2 sequence (Q6SW67 whole entry, looked up, chain 2 of 2): as the sequence (Q6SW67 whole entry, looked up, chain 2 of 2) above
# [4] = biological target: T2, recombinant gH/gL/UL128/UL130/UL131A …; experiment: SPR; Biacore X100, CM5 chip, RT, 1:1 binding model; methods: antibody (4 μg/mL) captured by anti-human Fc IgG to about 100 RU, pentamer or trimer in five 2-fold dilutions injected at 30 μL/min, 90 s association, 600 s dissociation (the legend of Fig. 5 tells the reverse orientation); remark: listed apart in the source
binder,measurement,setting,value
B1,Kd,[1],0.484 nM
same,Kd,[2],0.82 nM
same,koff,[2],0.000139 s⁻¹
same,kon,[2],168000 M⁻¹ s⁻¹
B2,binding result,[3],binds
B3,Kd,[4],1.33 nM
same,koff,[4],0.00156 s⁻¹
same,kon,[4],1.17e+06 M⁻¹ s⁻¹

# From publication PMC9784774, “Neutralization Epitopes in Trimer and Pentamer Complexes Recognized by Potent Cytomegalovirus-Neutralizing Human Monoclonal Antibodies” (Microbiology Spectrum, 2022)
